Data taken from US20080044419A1, “Treatment of T Cell Mediated Diseases by Inhibition of Fgfr3” (Fibron Ltd., priority 2003, published 2008).

Tests used:
[1] = target: fibroblast growth factor receptor 3 (FGFR3), P22607; assay: cell-based or functional assay
[2] = target: fibroblast growth factor receptor 3 (FGFR3) (UniProt P22607); assay: FACS
[3] = target: fibroblast growth factor receptor 3 (FGFR3) (UniProt P22607); assay: not stated (BIAcore presumably)
[4] = target: fibroblast growth factor receptor 3 (FGFR3) (UniProt P22607); assay: BIAcore

| IC50 FGFR3 (FGF9), FDCP-FGFR3 proliferation assay performed with FGF9 [1] [nM] | Kd [2] [nM] | Binder | further results |
| --- | --- | --- | --- |
| 70 |  | PRO-026 Fab-dHLX (protein) VH: QVQLVQSGAEVKKPGASVKVSCKASGYTFTSYYMHWVRQAPGQGLEWMGWINPNSGGTNYAQKFQGRVTMTRDTSISTAYMELSSLRSEDTAVYYCARGYWYAYFTYINYGYFDNWGQGTLVTVSS VL: DIALTQPASVSGSPGQSITISCTGTSSDVGGYNYVSWYQQHPGKAPKLMIYDVSNRPSGVSNRFSGSKSGNTASLTISGLQAEDEADYYCQSYDNNSDVVFGGGTKLTVLGQ |  |
| 34 |  | PRO-055 Fab-dHLX (protein) VH: QVQLVQSGAEVKKPGASVKVSCKASGYTFTSYYMHWVRQAPGQGLEWMGWINPNSGGTNYAQKFQGRVTMTRDTSISTAYMELSSLRSEDTAVYYCARSMNSTMYWYLRRVLFDHWGQGTLVTVSS VL: DIALTQPASVSGSPGQSITISCTGTSSDVGGYNYVSWYQQHPGKAPKLMIYDVSNRPSGVSNRFSGSKSGNTASLTISGLQAEDEADYYCQSYDMYNYIVFGGGTKLTVLGQ |  |
|  | 1.4 | PRO-026 (Fab, V domains shown) VH: QVQLVQSGAEVKKPGASVKVSCKASGYTFTSYYMHWVRQAPGQGLEWMGWINPNSGGTNYAQKFQGRVTMTRDTSISTAYMELSSLRSEDTAVYYCARGYWYAYFTYINYGYFDNWGQGTLVTVSS VL: DIALTQPASVSGSPGQSITISCTGTSSDVGGYNYVSWYQQHPGKAPKLMIYDVSNRPSGVSNRFSGSKSGNTASLTISGLQAEDEADYYCQSYDNNSDVVFGGGTKLTVLG |  |
| 20 |  | PRO-029 Fab-dHLX (protein) VH: QVQLVQSGAEVKKPGASVKVSCKASGYTFTSYYMHWVRQAPGQGLEWMGWINPNSGGTNYAQKFQGRVTMTRDTSISTAYMELSSLRSEDTAVYYCARTWQYSYFYYLDGGYYFDIWGQGTLVTVSS VL: DIVLTQSPATLSLSPGERATLSCRASQSVSSSYLAWYQQKPGQAPRLLIYGASSRATGVPARFSGSGSGTDFTLTISSLEPEDFATYYCQQTNNAPVTFGQGTKVEIKRT |  |
|  | < 1 | PRO-029 (Fab, V domains shown) VH: QVQLVQSGAEVKKPGASVKVSCKASGYTFTSYYMHWVRQAPGQGLEWMGWINPNSGGTNYAQKFQGRVTMTRDTSISTAYMELSSLRSEDTAVYYCARTWQYSYFYYLDGGYYFDIWGQGTLVTVSS VL: DIVLTQSPATLSLSPGERATLSCRASQSVSSSYLAWYQQKPGQAPRLLIYGASSRATGVPARFSGSGSGTDFTLTISSLEPEDFATYYCQQTNNAPVTFGQGTKVEIKR |  |
| 45 |  | PRO-054 Fab-dHLX (protein) VH: QVQLVQSGAEVKKPGASVKVSCKASGYTFTSYYMHWVRQAPGQGLEWMGWINPNSGGTNYAQKFQGRVTMTRDTSISTAYMELSSLRSEDTAVYYCARNMAYTNYQYVNMPHFDYWGQGTLVTVSS VL: DIELTQPPSVSVAPGQTARISCSGDALGDKYASWYQQKPGQAPVLVIYDDSDRPSGIPERFSGSNSGNTATLTISGTQAEDEADYYCQSYDYFKLVFGGGTKLTVLGQ |  |

Further lines, the binder ahead of its results:

| Binder | IC50 FGFR3 (FGF9), FDCP-FGFR3 proliferation assay performed with FGF9 [1] [nM] | Kd [2] [nM] | further results |
| --- | --- | --- | --- |
| PRO-024 Fab-dHLX (protein) VH: QVQLVQSGAEVKKPGSSVKVSCKASGGTFSSYAISWVRQAPGQGLEWMGGIIPIFGTANYAQKFQGRVTITADESTSTAYMELSSLRSEDTAVYYCARVNHWTYTFDYWGQGTLVTVSS VL: not shown | 70 |  |  |
| PRO-002 (Fab, V domains shown) VH: QVQLVQSGAEVKKPGASVKVSCKASGYTFTSYYMHWVRQAPGQGLEWMGWINPNSGGTNYAQKFQGRVTMTRDTSISTAYMELSSLRSEDTAVYYCARDFLGYEFDYWGQGTLVTVSS VL: DIELTQPPSVSVAPGQTARISCSGDALGDKYASWYQQKPGQAPVLVIYDDSDRPSGIPERFSGSNSGNTATLTISGTQAEDEADYYCQSYDYSADYVFGGGTKLTVLG |  | 43 |  |
| PRO-001 Fab-dHLX (protein) VH: QVQLQQSGPGLVKPSQTLSLTCAISGDSVSSNSAAWNWIRQSPGRGLEWLGRTYYRSKWYNDYAVSVKSRITINPDTSKNQFSLQLNSVTPEDTAVYYCARSYYPDFDYWGQGTLVTVSS VL: DIELTQPPSVSVAPGQTARISCSGDALGDKYASWYQQKPGQAPVLVIYDDSDRPSGIPERFSGSNSGNTATLTISGTQAEDEADYYCQSYDGPDLWVFGGGTKLTVLGQ | 19 |  |  |
| PRO-002 Fab-dHLX (protein) VH: QVQLVQSGAEVKKPGASVKVSCKASGYTFTSYYMHWVRQAPGQGLEWMGWINPNSGGTNYAQKFQGRVTMTRDTSISTAYMELSSLRSEDTAVYYCARDFLGYEFDYWGQGTLVTVSS VL: DIELTQPPSVSVAPGQTARISCSGDALGDKYASWYQQKPGQAPVLVIYDDSDRPSGIPERFSGSNSGNTATLTISGTQAEDEADYYCQSYDYSADYVFGGGTKLTVLGQ | 360 |  |  |
| PRO-001 (Fab, V domains shown) VH: QVQLQQSGPGLVKPSQTLSLTCAISGDSVSSNSAAWNWIRQSPGRGLEWLGRTYYRSKWYNDYAVSVKSRITINPDTSKNQFSLQLNSVTPEDTAVYYCARSYYPDFDYWGQGTLVTVSS VL: DIELTQPPSVSVAPGQTARISCSGDALGDKYASWYQQKPGQAPVLVIYDDSDRPSGIPERFSGSNSGNTATLTISGTQAEDEADYYCQSYDGPDLWVFGGGTKLTVLG |  | 0.7 | koff [3]: 0.00071 s⁻¹; Kd [4]: 1.5 nM |
| PRO-012 Fab-dHLX (protein) VH: QVQLKESGPALVKPTQTLTLTCTFSGFSLSTSGVGVGWIRQPPGKALEWLALIDWDDDKYYSTSLKTRLTISKDTSKNQVVLTMTNMDPVDTATYYCARYHSWYEMGYYGSTVGYMFDYWGQGTLVTVSS VL: DIELTQPPSVSVAPGQTARISCSGDALGDKYASWYQQKPGQAPVLVIYDDSDRPSGIPERFSGSNSGNTATLTISGTQAEDEADYYCQSYDFDFAVFGGTKLTVLGQ | 58 |  |  |
| PRO-021 Fab-dHLX (protein) VH: QVQLVQSGAEVKKPGSSVKVSCKASGGTFSSYAISWVRQAPGQGLEWMGGIIPIFGTANYAQKFQGRTITADESTSTAYMELSSLRSEDTAVYYCARDNWFKPFSDVWGQGTLVTVSS VL: not shown | 50 |  |  |
